B1: ZNF207 (parent)
chain: FQPQPVQPQQGYIPPMAQPGLPPV
B2: WDFY1 (parent)
chain: LLIPKEDGVITASEDRTIRVWLKR

This is an account of results in the supplement of paper PMC10567573.
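Also: lentivirally expressed fusions sorted by FACS into six bins by GFP to DsRed ratio, PSI derived from sequencing read proportions per bin multiplied by bin number.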

One data set covers variants of B1. Kind of data set: protein stability index of a GFP-peptide fusion (GPS, HEK-293T) (PSI 1-6); higher = more stable. Particulars: c terminus: a fixed tail appended.
Consider FQPQPVQPQQGYIPPMAQPGLQPV [P22Q], for which the protein stability index was found to be 3.33.

Turning to FQPQPVQPQQGYIPPMAQPGLIPV [P22I], the protein stability index turned out to be 2.68.

Regarding FQPQPVQPQQGYIPPMAQPGLCPV [P22C], the protein stability index worked out at 2.38.

With FQPQPVQPQQGYIPPMAQPGLSPV [P22S], the protein stability index turned out to be 2.13.

With FQPQPVQPQQGYIPPMAQPGLLPV [P22L], the protein stability index turned out to be 2.99.

On to FQPQPVQPQQGYIPPMAQPGLMPV [P22M], for which the protein stability index is 2.4.

Consider FQPQPVQPQQGYIPPMAQPGLAPV [P22A], for which the protein stability index is 3.37.

For FQPQPVQPQQGYIPPMAQPGLVPV [P22V], the protein stability index amounted to 2.72.

With FQPQPVQPCQGYIPPMAQPGLPPV [Q9C], the protein stability index came to 2.77.

On to FQPQPVQPSQGYIPPMAQPGLPPV [Q9S], for which the protein stability index is 3.43.

Take FQPQPVQPIQGYIPPMAQPGLPPV [Q9I]: the protein stability index turned out to be 2.89.

Take FQPQPVQPWQGYIPPMAQPGLPPV [Q9W]: the protein stability index turned out to be 1.88.

Regarding FQPQPVQPDQGYIPPMAQPGLPPV [Q9D], the protein stability index was 3.59.

As for FQPQPVQPFQGYIPPMAQPGLPPV [Q9F], the protein stability index turned out to be 2.34.

As to FQPSPVQPQQGYIPPMAQPGLPPV [Q4S], the protein stability index turned out to be 3.21.

On to FQPKPVQPQQGYIPPMAQPGLPPV [Q4K], for which the protein stability index stood at 2.92.

As to FQPWPVQPQQGYIPPMAQPGLPPV [Q4W], the protein stability index worked out at 1.81.

On to FQPLPVQPQQGYIPPMAQPGLPPV [Q4L], for which the protein stability index was 2.88.

On to QQPQPVQPQQGYIPPMAQPGLPPV [F1Q], for which the protein stability index turned out to be 4.18.

Consider RQPQPVQPQQGYIPPMAQPGLPPV [F1R], for which the protein stability index stood at 4.

For the variant HQPQPVQPQQGYIPPMAQPGLPPV [F1H], the protein stability index was 4.06.

In the case of LQPQPVQPQQGYIPPMAQPGLPPV [F1L], the protein stability index came out at 4.03.

As to KQPQPVQPQQGYIPPMAQPGLPPV [F1K], the protein stability index worked out at 4.37.

As to NQPQPVQPQQGYIPPMAQPGLPPV [F1N], the protein stability index worked out at 4.33.

Take DQPQPVQPQQGYIPPMAQPGLPPV [F1D]: the protein stability index is 4.47.

Turning to AQPQPVQPQQGYIPPMAQPGLPPV [F1A], the protein stability index was 4.29.

On to FQPQPVQPQQGYIPPMAQPGLPFV [P23F], for which the protein stability index is 1.88.

As to FQPQPVQPQQGYIPPMAQPGLPQV [P23Q], the protein stability index came to 3.14.

For the variant FQPQPVQPQQGYIPPMAQPGLPVV [P23V], the protein stability index was 3.13.

Take FQPQPVQPQQGYIPPMAQPGLPAV [P23A]: the protein stability index was determined as 3.4.

For the variant FQPQPVQPQQGYIPPMAQPGLPIV [P23I], the protein stability index came to 2.65.

In the case of FQPQPVQPQQGYIPPMAQPGLPCV [P23C], the protein stability index was 2.91.

On to FQPQPVQPQQGYIPPMAQPGLPGV [P23G], for which the protein stability index came to 2.27.

For FQPQPVQPQQGYIPPMAQPGLPDV [P23D], the protein stability index turned out to be 3.28.

As for FQPQPVQPQQGYIPPMAQPGLPYV [P23Y], the protein stability index is 2.42.

As for FQPQPVQPQQGYIPPMAQPGLPHV [P23H], the protein stability index stood at 2.77.

For FQPQTVQPQQGYIPPMAQPGLPPV [P5T], the protein stability index came to 2.62.

Regarding FQPQFVQPQQGYIPPMAQPGLPPV [P5F], the protein stability index is 2.33.

With FQPQLVQPQQGYIPPMAQPGLPPV [P5L], the protein stability index was 2.88.

Turning to FQPQAVQPQQGYIPPMAQPGLPPV [P5A], the protein stability index came to 3.22.

As to FQPQQVQPQQGYIPPMAQPGLPPV [P5Q], the protein stability index worked out at 2.99.

Consider FQPQHVQPQQGYIPPMAQPGLPPV [P5H], for which the protein stability index came to 3.15.

As for FQPQMVQPQQGYIPPMAQPGLPPV [P5M], the protein stability index was 2.61.

In the case of FQPQPVQPQQGYIPPMAQGGLPPV [P19G], the protein stability index was 3.12.

On to FQPQPVQPQQGYIPPMAQFGLPPV [P19F], for which the protein stability index was determined as 2.38.

As for FQPQPVQPQQGYIPPMAQCGLPPV [P19C], the protein stability index was 3.1.

Regarding FQPQPVQPQQGYIPPMAQLGLPPV [P19L], the protein stability index was 2.7.

For the variant FQPQPVQPQQGYIPPEAQPGLPPV [M16E], the protein stability index worked out at 3.54.

Regarding FQPQPVQPQQGYIPPWAQPGLPPV [M16W], the protein stability index came to 2.06.

For the variant FQPQPVQPQQGYIPPVAQPGLPPV [M16V], the protein stability index was 3.64.

For FQPQPVQPQQGYIPPSAQPGLPPV [M16S], the protein stability index stood at 3.5.

For the variant FQPQPVQPQQGYIPPMASPGLPPV [Q18S], the protein stability index was 2.95.

Turning to FQPQPVQPQQGYIPPMAKPGLPPV [Q18K], the protein stability index was 2.88.

Take FQPQPVQPQQGYIPPMAWPGLPPV [Q18W]: the protein stability index amounted to 2.03.

FQPQPVQPQQGYIPPMACPGLPPV [Q18C]: the protein stability index came to 2.37.

Consider FQPQPVQPQQGYIPPMAMPGLPPV [Q18M], for which the protein stability index was found to be 2.7.

In the case of FQPQPVQPQQGYIGPMAQPGLPPV [P14G], the protein stability index is 2.79.

Turning to FQPQPVQPQQGYINPMAQPGLPPV [P14N], the protein stability index amounted to 2.5.

On to FQPQPVQPQQGYIEPMAQPGLPPV [P14E], for which the protein stability index is 2.86.

FQPQPVQPQQGYIDPMAQPGLPPV [P14D]: the protein stability index amounted to 3.37.

For the variant FQPQPVQPQQGYIAPMAQPGLPPV [P14A], the protein stability index worked out at 2.96.

With FQPQPVQPQQGYIIPMAQPGLPPV [P14I], the protein stability index came out at 2.63.

With FQPQPVQPQQGYIFPMAQPGLPPV [P14F], the protein stability index came to 2.93.

Consider FQPQPVQPQQGYITPMAQPGLPPV [P14T], for which the protein stability index was determined as 2.75.

In the case of FQPQPVQPQQGYIVPMAQPGLPPV [P14V], the protein stability index worked out at 2.9.

With FQPQPVQPQQGYIMPMAQPGLPPV [P14M], the protein stability index came to 2.88.

As to FQPQPVQPQQGYISPMAQPGLPPV [P14S], the protein stability index amounted to 3.08.

FQPQPVQPQQGYIHPMAQPGLPPV [P14H]: the protein stability index worked out at 2.75.

Consider FQPQPVQPQQGYIYPMAQPGLPPV [P14Y], for which the protein stability index amounted to 2.65.

The variants in another data set derive from B2. The description is as above. The conditions noted are these: c terminus: a fixed tail appended.
As to LFIPKEDGVITASEDRTIRVWLKR [L2F], the protein stability index is 1.25.

As for LCIPKEDGVITASEDRTIRVWLKR [L2C], the protein stability index was 2.5.

Regarding LHIPKEDGVITASEDRTIRVWLKR [L2H], the protein stability index was determined as 1.68.

As to LGIPKEDGVITASEDRTIRVWLKR [L2G], the protein stability index amounted to 2.37.

LAIPKEDGVITASEDRTIRVWLKR [L2A]: the protein stability index was determined as 2.88.

Regarding LDIPKEDGVITASEDRTIRVWLKR [L2D], the protein stability index came out at 3.47.

Regarding LEIPKEDGVITASEDRTIRVWLKR [L2E], the protein stability index was found to be 3.8.

For PLIPKEDGVITASEDRTIRVWLKR [L1P], the protein stability index worked out at 4.03.

Take VLIPKEDGVITASEDRTIRVWLKR [L1V]: the protein stability index was determined as 2.56.

For the variant FLIPKEDGVITASEDRTIRVWLKR [L1F], the protein stability index was found to be 2.24.

On to WLIPKEDGVITASEDRTIRVWLKR [L1W], for which the protein stability index was determined as 1.73.

As for ALIPKEDGVITASEDRTIRVWLKR [L1A], the protein stability index is 2.5.

For TLIPKEDGVITASEDRTIRVWLKR [L1T], the protein stability index is 3.62.

As to DLIPKEDGVITASEDRTIRVWLKR [L1D], the protein stability index is 3.54.

Take ILIPKEDGVITASEDRTIRVWLKR [L1I]: the protein stability index came to 2.1.

Turning to RLIPKEDGVITASEDRTIRVWLKR [L1R], the protein stability index stood at 2.73.

On to YLIPKEDGVITASEDRTIRVWLKR [L1Y], for which the protein stability index was determined as 2.55.

Turning to HLIPKEDGVITASEDRTIRVWLKR [L1H], the protein stability index came to 2.83.

NLIPKEDGVITASEDRTIRVWLKR [L1N]: the protein stability index amounted to 3.1.

For the variant MLIPKEDGVITASEDRTIRVWLKR [L1M], the protein stability index was 3.12.

On to QLIPKEDGVITASEDRTIRVWLKR [L1Q], for which the protein stability index stood at 2.94.

Take SLIPKEDGVITASEDRTIRVWLKR [L1S]: the protein stability index came out at 2.93.

CLIPKEDGVITASEDRTIRVWLKR [L1C]: the protein stability index amounted to 2.35.

ELIPKEDGVITASEDRTIRVWLKR [L1E]: the protein stability index is 3.2.

In the case of KLIPKEDGVITASEDRTIRVWLKR [L1K], the protein stability index worked out at 2.74.
